Measured values from EP2899279A1.

T1: Grapevine fanleaf virus strain F13 (purified viral particles) (Grapevine fanleaf virus, strain F13) (UniProt P18474)
T1 sequence (looked up): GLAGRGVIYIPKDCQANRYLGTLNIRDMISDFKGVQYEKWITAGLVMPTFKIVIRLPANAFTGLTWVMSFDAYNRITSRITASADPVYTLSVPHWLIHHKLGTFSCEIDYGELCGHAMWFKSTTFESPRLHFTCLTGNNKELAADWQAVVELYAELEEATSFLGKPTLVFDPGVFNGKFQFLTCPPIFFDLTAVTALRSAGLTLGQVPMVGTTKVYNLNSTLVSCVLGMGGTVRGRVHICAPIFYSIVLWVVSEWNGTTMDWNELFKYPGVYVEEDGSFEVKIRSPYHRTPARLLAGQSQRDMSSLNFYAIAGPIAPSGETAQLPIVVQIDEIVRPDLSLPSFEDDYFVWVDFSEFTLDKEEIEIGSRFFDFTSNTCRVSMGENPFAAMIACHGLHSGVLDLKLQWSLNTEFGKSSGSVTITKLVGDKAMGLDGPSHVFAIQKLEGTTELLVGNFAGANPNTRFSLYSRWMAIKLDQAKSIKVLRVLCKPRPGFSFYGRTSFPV

B1: Nb23 (His6-tagged, purified from E. coli) (VHH)
VHH: QVQLQESGGGSVQVGGSLRVACAASGDTFSGYLAAWFRQAPGKGREGVAAINSKRHTTSYADSVKGRFTISKDNADNIMYLEMNSLKPEDTAIYYCAAADAIGLAEYWSTPTLSAARYKYWGQGTQVTVSS
B2: Nb23:EGFP fusion protein (Nb23:EGFP:His6, expressed in E. coli) (protein, part only; not given: EGFP and cloning residues, not shown: large carriers)
chain, part: QVQLQESGGGSVQVGGSLRVACAASGDTFSGYLAAWFRQAPGKGREGVAAINSKRHTTSYADSVKGRFTISKDNADNIMYLEMNSLKPEDTAIYYCAAADAIGLAEYWSTPTLSAARYKYWGQGTQVTVSSGGGSGGGHHHHHH

Assays:
[1] = molecular target: T1, Grapevine fanleaf virus strain F13 (purified viral particles) (Grapevine fanleaf virus, strain F13); assay: dynamic light scattering: GFLV-F13 at 0.1 mg/ml with Nb23 at 0.1 mg/ml; virus alone 32 nm
[2] = molecular target: T1, Grapevine fanleaf virus strain F13 (purified viral particles) (Grapevine fanleaf virus, strain F13); assay: dynamic light scattering: GFLV-F13 at 0.1 mg/ml with Nb23:EGFP at 0.9 mg/ml; virus alone 32 nm

Binder | average hydrodynamic diameter of viral particles in the presence of the binder [1] | average hydrodynamic diameter of viral particles in the presence of the binder [2]
B1 | 37.8 nm | 
B2 |  | 43.8 nm
